Data: article PMC7318764, “Shrimp miR-965 induced the human melanoma stem-like cell apoptosis and inhibited their stemness by disrupting the MCL-1-ER stress-XBP1 feedback loop in a cross-species manner”

Biological target: Ago2 (human, UniProt Q9UKV8 1-859)
Assay: EMSA; Ago2 12.5, 25, 50, 100 mM (so in the source) with 40 mM miR-965; 1 mM MgCl2; shifted band increases with Ago2; 0.1 M KCl, 1 mM DTT, 1 mM MgCl2, 10 mM HEPES pH 7.6, 30 min at 37 C; 1% agarose gel, ethidium bromide then Coomassie stain
Settings: protein: recombinant; single strand printed

Sequence of Ago2 (Q9UKV8 whole entry): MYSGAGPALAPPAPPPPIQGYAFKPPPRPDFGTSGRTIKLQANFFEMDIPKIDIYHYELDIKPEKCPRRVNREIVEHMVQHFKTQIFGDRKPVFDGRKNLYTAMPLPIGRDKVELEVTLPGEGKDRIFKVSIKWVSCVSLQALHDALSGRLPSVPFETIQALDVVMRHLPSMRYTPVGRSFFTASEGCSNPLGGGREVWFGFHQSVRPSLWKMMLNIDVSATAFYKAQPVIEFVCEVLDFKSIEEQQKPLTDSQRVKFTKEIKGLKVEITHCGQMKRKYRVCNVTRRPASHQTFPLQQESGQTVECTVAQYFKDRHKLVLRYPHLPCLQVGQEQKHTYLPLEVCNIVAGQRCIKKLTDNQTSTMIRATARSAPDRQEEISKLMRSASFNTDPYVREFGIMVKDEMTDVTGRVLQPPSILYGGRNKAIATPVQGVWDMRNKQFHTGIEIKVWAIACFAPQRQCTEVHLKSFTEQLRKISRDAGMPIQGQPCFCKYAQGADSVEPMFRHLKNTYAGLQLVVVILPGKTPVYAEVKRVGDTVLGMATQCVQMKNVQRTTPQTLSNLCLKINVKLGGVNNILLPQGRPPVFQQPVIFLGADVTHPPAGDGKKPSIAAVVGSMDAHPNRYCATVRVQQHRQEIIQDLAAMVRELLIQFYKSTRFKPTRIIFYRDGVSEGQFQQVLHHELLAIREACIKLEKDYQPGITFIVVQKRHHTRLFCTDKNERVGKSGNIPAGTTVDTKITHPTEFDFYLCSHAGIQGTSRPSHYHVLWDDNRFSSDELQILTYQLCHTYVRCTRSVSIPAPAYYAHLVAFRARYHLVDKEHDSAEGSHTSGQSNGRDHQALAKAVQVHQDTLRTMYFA

UAAGCGUAUGGCUUUUCCCCUC (ssRNA) [shrimp miR-965]
binding result: binds
